# IntAct's records for PubMed 18171471
# B1: Focal adhesion kinase 1 (Gallus gallus (Chicken)), Q00944 (parent)
# chain: MAAAYLDPNLNHTPSSSAKTHLGTGMERSPGAMERVLKVFHYFENSSEPTTWASIIRHGDATDVRGIIQKIVDCHKVKNVACYGLRLSHLQSEEVHWLHLDMGVSNVREKFELAHPPEEWKYELRIRYLPKGFLNQFTEDKPTLNFFYQQVKNDYMLEIADQVDQEIALKLGCLEIRRSYGEMRGNALEKKSNYEVLEKDVGLRRFFPKSLLDSVKAKTLRKLIQQTFRQFANLNREESILKFFEILSPVYRFDKECFKCALGSSWIISVELAIGPEEGISYLTDKGANPTHLADFNQVQTIQYSNSEDKDRKGMLQLKIAGAPEPLTVTAPSLTIAENMADLIDGYCRLVNGATQSFIIRPQKEGERALPSIPKLANNEKQGVRSHTVSVSETDDYAEIIDEEDTYTMPSTRDYEIQRERIELGRCIGEGQFGDVHQGIYMSPENPAMAVAIKTCKNCTSDSVREKFLQEALTMRQFDHPHIVKLIGVITENPVWIIMELCTLGELRSFLQVRKFSLDLASLILYAYQLSTALAYLESKRFVHRDIAARNVLVSATDCVKLGDFGLSRYMEDSTYYKASKGKLPIKWMAPESINFRRFTSASDVWMFGVCMWEILMHGVKPFQGVKNNDVIGRIENGERLPMPPNCPPTLYSLMTKCWAYDPSRRPRFTELKAQLSTILEEEKLQQEERMRMESRRQVTVSWDSGGSDEAPPKPSRPGYPSPRSSEGFYPSPQHMVQPNHYQVSGYSGSHGIPAMAGSIYPGQASLLDQTDSWNHRPQEVSAWQPNMEDSGTLDVRGMGQVLPTHLMEERLIRQQQEMEEDQRWLEKEERFLVMKPDVRLSRGSIEREDGGLQGPAGNQHIYQPVGKPDHAAPPKKPPRPGAPHLGSLASLNSPVDSYNEGVKIKPQEISPPPTANLDRSNDKVYENVTGLVKAVIEMSSKIQPAPPEEYVPMVKEVGLALRTLLATVDESLPVLPASTHREIEMAQKLLNSDLAELINKMKLAQQYVMTSLQQEYKKQMLTAAHALAVDAKNLLDVIDQARLKMISQSRPH
# Variants of: B1
# Conditions: with paxi_chick PXN
row,effect of a mutation on the interaction,Variant
1,decreasing interaction,E949A;K956A;R963A
2,decreasing interaction,I937A
